According to publication PMC9765439, “Systems-Wide Dissection of Organic Acid Assimilation in Pseudomonas aeruginosa Reveals a Novel Path To Underground Metabolism” (mBio, 2022):

Test system: T1, PrpR (His6-PrpR) (Pseudomonas aeruginosa PAO1?), ORF:9118ca87
T1 sequence: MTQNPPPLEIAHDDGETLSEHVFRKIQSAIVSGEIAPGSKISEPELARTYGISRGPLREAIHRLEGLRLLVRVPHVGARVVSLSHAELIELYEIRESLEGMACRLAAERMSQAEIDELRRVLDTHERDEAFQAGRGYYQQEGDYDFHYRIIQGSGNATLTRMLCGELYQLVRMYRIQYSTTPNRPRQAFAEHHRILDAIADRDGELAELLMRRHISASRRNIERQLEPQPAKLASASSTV
Test: EMSA
Conditions: 30 mM Tris-HCl pH 8.0, 120 mM KCl, 1 mM MnCl2, 1 mM MgCl2, 20% glycerol, 240 ug/mL BSA, 15.2 ug/mL poly(dI-dC), 21 C, 60 min; 6% PAGE in TBE

## CTGCTTCATCACGTCGCCCATGCCGCAGGCGAAGTCGATCAGGCGCGGCAACACGTAACGGTCATAGATGCCCACGAAACTCTCTCCTGGCACAGCGGCTGGAGGGGAAAGCATAGACCAGCGATGCATTAGACGATTGTCGACAATCAAGCGACGAATGATTGACCCCACGCAATCCAGGCGGTAGCTTTCGCAAACATTGTCGACACATCGACCCGGACAGCCAGTACCATGACCCAGAACCCGCCCCCTCTCGAGATTGCCCATGAC (double strand) [prpR promoter (prpRp)]
  binding: binds
